Assay [1] has as its target T1, purified normal human C1q (human, UniProt P02745 23-245; P02746 28-253; P02747 29-245).
T1 construct: Complement C1q subcomponent subunit A, human; Complement C1q subcomponent subunit B, human; Complement C1q subcomponent subunit C, human; Used purified (ELISA, SPR) and in 10% normal human serum (microspheres); also called serum C1q; C1q protein; source: bought: Sigma (purified normal human C1q); endogenous, normal human serum; copies: + +
Nature of the assay: SPR; C1q immobilised on CM5 dextran sensor chip; HMGB1 proteins passed over at 1.8, 0.9, 0.45, 0.23 and 0.11 µM; BIAcore 2000. Particulars: both partners purified.

Assay [2] deals with T1, purified normal human C1q. Nature of the assay: SPR; reciprocal: HMGB1 WT (R&D), A box or B box (10 µg/ml) immobilised on CM5 chip in 10 mM sodium acetate pH 4.0; C1q in HBS-EP (10 mM HEPES, 150 mM NaCl, 3.4 mM EDTA, 0.05% Tween 20, pH 7.4) at 200, 100, 50, 25 and 12.5 nM, 20 µl/min for 3 min; BIAcore 2000. Particulars: both partners purified.

Data on three molecules can be found in PMC5904255, “High-Mobility Group Box 1-Induced Complement Activation Causes Sterile Inflammation” (Frontiers in Immunology, 2018).

T1 sequence (P02745 23-245, chain 1 of 3): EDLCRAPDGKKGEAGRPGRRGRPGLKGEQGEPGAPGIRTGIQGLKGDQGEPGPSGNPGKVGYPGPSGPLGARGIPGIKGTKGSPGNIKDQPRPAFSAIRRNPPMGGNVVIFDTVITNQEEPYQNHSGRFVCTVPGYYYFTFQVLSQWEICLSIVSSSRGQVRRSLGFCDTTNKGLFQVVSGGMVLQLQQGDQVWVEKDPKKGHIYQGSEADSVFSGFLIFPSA
T1 sequence (P02746 28-253, chain 2 of 3): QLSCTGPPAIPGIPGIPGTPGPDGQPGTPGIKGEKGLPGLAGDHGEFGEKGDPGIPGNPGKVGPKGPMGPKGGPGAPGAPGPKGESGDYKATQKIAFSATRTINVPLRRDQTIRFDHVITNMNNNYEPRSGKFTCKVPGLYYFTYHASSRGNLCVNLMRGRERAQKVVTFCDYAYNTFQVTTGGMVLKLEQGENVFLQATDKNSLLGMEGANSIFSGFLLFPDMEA
T1 sequence (P02747 29-245, chain 3 of 3): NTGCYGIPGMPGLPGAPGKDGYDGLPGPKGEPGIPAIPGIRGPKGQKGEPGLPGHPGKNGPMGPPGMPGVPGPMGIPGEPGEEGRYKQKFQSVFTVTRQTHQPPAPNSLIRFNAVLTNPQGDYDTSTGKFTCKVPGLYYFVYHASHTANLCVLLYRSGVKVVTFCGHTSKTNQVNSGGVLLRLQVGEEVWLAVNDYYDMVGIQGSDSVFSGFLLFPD

B1: HMGB1 box B (aa 88-162) (domain or fragment, human, UniProt P09429 88-162, looked up)
chain: KFKDPNAPKRPPSAFFLFCSEYRPKIKGEHPGLSIGDVAKKLGEMWNNTAADDKQPYEKKAAKLKEKYEKDIAAY
notes: HMGB1, human, B box, aa 88-162; Subcloned into pRSET B; also called HMGB1 B box; B box; source: E. coli BL21 (DE3) pLysE, purified
Usually Kd stands for a measure of binding affinity in units of concentration. In assay [1], B1 came in with a Kd of approximately 4 µM.

B2: HMGB1 produced in NS0 mouse myeloma cell line (Euk-HMGB1, R&D Systems) (natural protein, human, UniProt P09429 1-215, looked up)
chain: MGKGDPKKPRGKMSSYAFFVQTCREEHKKKHPDASVNFSEFSKKCSERWKTMSAKEKGKFEDMAKADKARYEREMKTYIPPKGETKKKFKDPNAPKRPPSAFFLFCSEYRPKIKGEHPGLSIGDVAKKLGEMWNNTAADDKQPYEKKAAKLKEKYEKDIAAYRAKGKPDAAKKGVVKAEKSKKKKEEEEDEEDEEDEEEEEDEEDEDEEEDDDDE
notes: High-mobility group box 1 (HMGB1), human, produced in mouse myeloma cell line NS0; No catalogue number is printed; also called HMGB1 WT (R&D); source: bought: R&D Systems (produced in NS0 mouse myeloma cell line)
Consider B2, for which the Kd in assay [2] is approximately 0.4 µM.

B3: HMGB1 box A (aa 1-79) (domain or fragment, human, UniProt P09429 1-79, looked up)
chain: MGKGDPKKPRGKMSSYAFFVQTCREEHKKKHPDASVNFSEFSKKCSERWKTMSAKEKGKFEDMAKADKARYEREMKTYI
notes: HMGB1, human, A box, aa 1-79; Subcloned into pRSET B; also called HMGB1 A box; A box; source: E. coli BL21 (DE3) pLysE, purified
In assay [1], B3 returned a Kd of approximately 4 µM.
